Experiments:
Format in all cases: binding
[1] = Indirect antibody ELISA, cross-reactivity with thymine; settings: Table 3; (IC50 for 5-FU/IC50 for testing chemical)%
From the text: (§1) This indirect antibody ELISA assay 5-FU assay was constructed using either 1-3C-5-FU-BSA or 1-5C-5-FU-BSA as antibody capture reagent and a horseradish perioxidase (HRP) conjugated goat anti-mouse antibody as the antibody detector reagent. The binding of 5-FU antibody was detected with 3,3,5,5-TetraMethylBenzidine (TMB) as the HRP enzyme substrate. The 5-FU ELISA assay signal (OD450) decreased proportionally to the increasing concentration of 5-FU. The 5-FU IC50 and tegafur cross-reactivity were determined as in the previous section.
(§2) In addition to tegafur, several 5-FU structurally related chemicals were also evaluated for their cross-reactivity to the antibodies generated with 5-FU conjugate with the 3-carbon linker and were summarized below in Table 3. […] However, antibody 36H11 was highly specific for 5-FU and was detected for about 12% or lower cross-reactivity with tegafur.

[2] = Hybridoma supernatant competition test in ECL bridging assay; settings: hybridoma culture supernatant; signal decreased in the presence of low level of 5-FU
Description: Hybridomas were screened between days 10-14 for the secretion of 5-FU antibody by the 5-FU antibody assay (Bridging-assay) described before. 25 μL of culture supernatant were transferred to an assay plate and mixed with 50 μL of 5-FU antibody assay master mix containing 100 ng/mL of each Bi-1-3C-5-FU-BSA and TAG Plus 1-3C-5-FU-BSA in 200 μg/mL of M280-SA beads. Samples were incubated for 30 minutes with shaking. Beads were recovered and resuspended in 150 μL of DILUENT and read in an M384 analyzer with 100 μL draw volume. Hybridomas identified from plates with greater than 20% of growing wells were re-cloned by limiting dilution in 96-well plate at 0.3 and 1.0 cells/well.
5-FU antibody specificity and cross-reactivity was tested on hybridomas that were identified as positive for 5-FU binding. […]
Typically, 25 μL of culture supernatant were mixed with 50 μL of 5-FU assay master mix containing 100 ng/mL of each Bi-1-3C-5-FU-BSA and TAG Plus 1-3C-5-FU-BSA in 200 μg/mL of M280-SA beads with or without competing chemicals. […] Beads were recovered and resuspended in 150 μL of DILUENT and read in an M384 analyzer with 100 μL draw volume.
X_RCT=cross-reactivity (calculated 5-FU concentration/10 μg/mL).

[3] = Indirect antibody ELISA, cross-reactivity with tegafur; settings: (IC50 for 5-FU/IC50 for testing chemical)%
Description: In this experiment, antibody capture reagents were 5-FU BSA conjugates modified at the 5-FU position 1 with either 3-carbon or 5-carbon linkers. 5-FU was conjugated to BSA by mixing 1-5C-5-FU-NHS ester with BSA at a challenge ratio of 12:1 (molar ratios of 1-5C-5-FU-NHS to BSA) in a phosphate buffer containing a phosphate buffered saline containing 10.5 mM KH2PO4, 139.5 mM K2HPO4 and 150.6 mM NaCl, =pH 7.7-7.9 (typically pH 7.8) for 1 hour or more incubation at room temperature (typically 1 hour incubation at room temperature). After the incubation, unbound 1-5C-5-FU-NHS ester was removed by 3 buffer exchanges in an AmiconUltra4-30K filter (Millipore, Cat#UFC803024). […]
as §1, with “The 5-FU ELISA assay signal (OD450) decreased proportionally to the increasing concentration of 5-FU.” left out, “section. […]” for “section.”
In addition to tegafur, several 5-FU structurally related chemicals were also evaluated for their cross-reactivity to the antibodies generated with 5-FU conjugate with the 3-carbon linker and were summarized below in Table 3. […]

[4] = Indirect antibody ELISA, cross-reactivity with uracil; settings: Table 3; (IC50 for 5-FU/IC50 for testing chemical)%
From the text: as §1, §2

[5] = Indirect antibody ELISA on 5-FU-BSA coated plates, competition with 5-FU
Description: In this experiment, antibody capture reagents were 5-FU BSA conjugates modified at the 5-FU position 1 with either 3-carbon or 5-carbon linkers. 5-FU was conjugated to BSA by mixing 1-5C-5-FU-NHS ester with BSA at a challenge ratio of 12:1 (molar ratios of 1-5C-5-FU-NHS to BSA) in a phosphate buffer containing a phosphate buffered saline containing 10.5 mM KH2PO4, 139.5 mM K2HPO4 and 150.6 mM NaCl, =pH 7.7-7.9 (typically pH 7.8) for 1 hour or more incubation at room temperature (typically 1 hour incubation at room temperature). After the incubation, unbound 1-5C-5-FU-NHS ester was removed by 3 buffer exchanges in an AmiconUltra4-30K filter (Millipore, Cat#UFC803024). BSA conjugated with 5-FU (5-FU-BSA) was concentrated and stored in the same phosphate buffer (pH 7.8).
as §1, with “section. […]” for “section.”

[6] = Indirect antibody ELISA, cross-reactivity with cytosine; settings: Table 3; (IC50 for 5-FU/IC50 for testing chemical)%
From the text: as §1, §2

[7] = ECL assay with TAG Plus mAb as detector and position-3 modified 5-FU capture reagent; settings: Bi-3-5C-5-FU-HSA pre-bound M280-SA beads
Description: Unless otherwise specifically mentioned, a 5-FU immunoassay was set up by mixing the same volumes of sample with capture reagent first and then with detector reagent in a 96 well plate. After adding reagents, samples were mixed for 5 minutes at room temperature with shaking. After the incubation, beads were recovered by attaching a plate magnet to the assay plate for 2 minutes and resuspending in 150 μL of DILUENT. Samples were either read in an M384 or an M1MR analyzer with 100 μL draw volume under the 96 standard round plate protocol.
The performance of TAG Plus conjugated antibody 61C6 as an assay detector reagent was studied. Assay performance was evaluated in 5-FU Antibody Screening Buffer with a 5-fold 5-FU serial dilution curve from 150 μg/mL to 9.6 ng/mL as 5-FU calibrators (samples).
A total of 5 capture reagents were evaluated in this experiment. Three capture reagents were 5-FU bound to M280-SA beads through biotinylated BSA including Bi-1-3C-5-FU-BSA, Bi-1-5C-5-FU-BSA and Bi-3-5C-5-FU-HSA pre-bound to M280-SA beads at the ratio of 1.0 μg capture reagent per mg beads (200 μg/mL). […]
The assay detector reagent used was TAG Plus 5-FU mAb 61C6 at the concentration of 2.0 μg/mL. […] The plate was read in an M384 ECL Analyzer with a draw volume of 100 μL under 96 standard plate protocol. […]

[8] = Indirect antibody ELISA, cross-reactivity with DH-5-FU; settings: Table 3; (IC50 for 5-FU/IC50 for testing chemical)%
From the text: as §1, §2

B1: mAb 61C6: monoclonal anti-5-FU antibody, IgG2b κ; heavy chain SEQ ID NO:2, light chain SEQ ID NO:6; from 3-carbon linker immunogen (antibody, listed as Mus musculus)
heavy: MDWLWNLLFLMAAAQSIQAQIQLVQSGPELKKPGETVTISCKASGYTLTNYGMNWVKQAPGKGLKWMGWINTNSGEPTYVEEFKGRFAFSLETSVSTVYLQISDLKHEDTATYFCARWGPHFNAYGWFAYWGQGTLVTVSAAKTTPPSVYPLAPGCGDTTGSSVTLGCLVKGYFPESVTVTWNSGSLSSSVHTFPALLQSGLYTMSSSVTVPSSTWPSQTVTCSVAHPASSTTVDKKLEPSGPISTINPCPPCKECHKCPAPNLEGGPSVFIFPPNIKDVLMISLTPKVTCVVVDVSEDDPDVQISWFVNNVEVHTAQTQTHREDYNSTIRVVSTLPIQHQDWMSGKEFKCKVNNKDLPSPIERTISKIKGLVRAPQVYILPPPAEQLSRKDVSLTCLVVGFNPGDISVEWTSNGHTEENYKDTAPVLDSDGSYFIYSKLNMKTSKWEKTDSFSCNVRHEGLKNYYLKKTISRSPGK
light: MMSSAQFLGLLLLCFQGTRCYIQMTQTASSLSASLGDRVTISCRASQDIWNYLNWYQQKPDGTIKLLIYYKSRLHSGVPSRFSGSGSGIDFSLTISNLEQEDFATYFCQQGHTLPWTFGGGSKLEIKRADAAPTVSIFPPSSEQLTSGGASVVCFLNNFYPKDINVKWKIDGSERQNGVLNSWTDQDSKDSTYSMSSTLTLTKDEYERHNSYTCEATHKTSTSPIVKSFNRNEC
notes: monoclonal anti-5-FU antibody, IgG2b κ; from 3-carbon linker immunogen
For B1, the “Cross-reactivity Thymine” value [1] was “Undetectble”, the “specificity to 5-FU” value [2] was “better specificity to 5-FU” and the “Cross-reactivity Tegafur” value ([3]; Table 3) was 28%. The “Tegafur Cross-reactivity**” value ([3]; indirect ELISA) was 28%, the “Cross-reactivity Uracil” value [4] was 1.4% and the “Cross-reactivity 5-FU” value ([5]; Table 3, (IC50 for 5-FU/IC50 for testing chemical)%, reference) was 100%. The “Ratio of IC50 on 5-FU Conjugates with 5-carbon Linker vs. 3-carbon Linker” value ([5]; indirect ELISA, 5-FU IC50 on 5-carbon vs 3-carbon linker 5-FU conjugate) was 4.7, the “Cross-reactivity Cytosine” value [6] was 0.57% and the “reactivity with position 3 modified 5-FU (3-5C-5-FU-HSA) capture reagent” value [7] was “reactive”. The “Cross-reactivity DH-5-FU” value [8] was 1.4%.

Reference: patent US9702869B2, “Assays, antibodies, immunogens and compositions related to 5-FU” (WELLSTAT DIAGNOSTICS, LLC, priority 2011, dated 2017)
